B1: N142P|I144P|N377P, Q8GB52 (parent)
chain: MLKKVLSCCIAATFGIYSASSLAQSSVINSTENSQQPIAPLVLASSDDAITDRYIVVLKQPQMLMNDAAGLQQFTQQTVGLMANSFSIKTDDVFDSSIIGFVANLDALQLKQLRRDSRVEYIEQDQILSIDPVVSNEAVQSNAIWGLDRIDQRNLPLDRNYNANFDGFGVTAYVIDTGVNNNHEEFGGRSVSGYDFVDNDADSSDCNGHGTHVAGTIGGSQYGVAKNVNIVGVRVLSCSGSGTTSGVISGVDWVAQNASGPSVANMSLGGGQSTALDSAVQGAIQSGVSFMLAAGNSNADACNTSPARVPSGVTVGSTTSSDSRSSFSNWGSCVDLFAPGSQIKSAWYDGGYKTISGTSMATPHVAGVAALYLQENNGLTPLQLTGLLNSRASENKVSDTRGTTNKLLYSLADSGCEPDCGGPTPGPDPDGKLVSGVPVNGLSGSRGQKDYFYMDLQQGQQLTVVTIGGTGDADLYLRFGDKPTLNTWDCRPYRSGNSETCTVNVTQSGRYHVMLNAYSAYSGLTLQANF

Variants of: B1
Settings: Vibrio sp. PA-44, pH 8.6, Thermal, structure 1SH7, whole UniProt chain shown
[1] = CD, Glycine 25 mM, NaCl and CaCl2 100 mM and 15 mM
[2] = CD, glycine, Nacl / Cacl2 100000 / 15000, transition: 2, reversible: no
[3] = DSC, Glycine 25 mM, NaCl and CaCl2 100 mM and 15 mM
[4] = DSC, glycine, Nacl / Cacl2 100000 / 15000, transition: 2, reversible: no

Variant: MLKKVLSCCIAATFGIYSASSLAQSSVINSTENSQQPIAPLVLASSDDAITDRYIVVLKQPQMLMNDAAGLQQFTQQTVGLMANSFSIKTDDVFDSSIIGFVANLDALQLKQLRRDSRVEYIEQDQILSIDPVVSNEAVQSPAPWGLDRIDQRNLPLDRNYNANFDGFGVTAYVIDTGVNNNHEEFGGRSVSGYDFVDNDADSSDCNGHGTHVAGTIGGSQYGVAKNVNIVGVRVLSCSGSGTTSGVISGVDWVAQNASGPSVANMSLGGGQSTALDSAVQGAIQSGVSFMLAAGNSNADACNTSPARVPSGVTVGSTTSSDSRSSFSNWGSCVDLFAPGSQIKSAWYDGGYKTISGTSMATPHVAGVAALYLQENPGLTPLQLTGLLNSRASENKVSDTRGTTNKLLYSLADSGCEPDCGGPTPGPDPDGKLVSGVPVNGLSGSRGQKDYFYMDLQQGQQLTVVTIGGTGDADLYLRFGDKPTLNTWDCRPYRSGNSETCTVNVTQSGRYHVMLNAYSAYSGLTLQANF [N142P I144P N377P]
- Tm [1]: 68.8 °C
- change of melting temperature, mutant - wild type (higher = more stable) [1]: 6.9 °C
- Tm [2]: 68.8 °C
- change of melting temperature, mutant - wild type (higher = more stable) [2]: 6.9 °C
- Tm [3]: 72 °C
- change of melting temperature, mutant - wild type (higher = more stable) [3]: 8.1 °C
- unfolding enthalpy (calorimetric) [3]: 163 kcal/mol
- Tm [4]: 72 °C
- change of melting temperature, mutant - wild type (higher = more stable) [4]: 8.1 °C
- unfolding enthalpy (calorimetric) [4]: 162 kcal/mol

Variant: MLKKVLSCCIAATFGIYSASSLAQSSVINSTENSQQPIAPLVLASSDDAITDRYIVVLKQPQMLMNDAAGLQQFTQQTVGLMANSFSIKTDDVFDSSIIGFVANLDALQLKQLRRDSRVEYIEQDQILSIDPVVSNEAVQSPAIWGLDRIDQRNLPLDRNYNANFDGFGVTAYVIDTGVNNNHEEFGGRSVSGYDFVDNDADSSDCNGHGTHVAGTIGGSQYGVAKNVNIVGVRVLSCSGSGTTSGVISGVDWVAQNASGPSVANMSLGGGQSTALDSAVQGAIQSGVSFMLAAGNSNADACNTSPARVPSGVTVGSTTSSDSRSSFSNWGSCVDLFAPGSQIKSAWYDGGYKTISGTSMATPHVAGVAALYLQENNGLTPLQLTGLLNSRASENKVSDTRGTTNKLLYSLADSGCEPDCGGPTPGPDPDGKLVSGVPVNGLSGSRGQKDYFYMDLQQGQQLTVVTIGGTGDADLYLRFGDKPTLNTWDCRPYRSGNSETCTVNVTQSGRYHVMLNAYSAYSGLTLQANF [N142P]
- Tm [1]: 64.8 °C
- change of melting temperature, mutant - wild type (higher = more stable) [1]: 2.9 °C
- Tm [3]: 66.8 °C
- change of melting temperature, mutant - wild type (higher = more stable) [3]: 2.9 °C
- unfolding enthalpy (calorimetric) [3]: 128 kcal/mol
- Tm [4]: 66.8 °C
- change of melting temperature, mutant - wild type (higher = more stable) [4]: 2.9 °C
- unfolding enthalpy (calorimetric) [4]: 127 kcal/mol

Variant: MLKKVLSCCIAATFGIYSASSLAQSSVINSTENSQQPIAPLVLASSDDAITDRYIVVLKQPQMLMNDAAGLQQFTQQTVGLMANSFSIKTDDVFDSSIIGFVANLDALQLKQLRRDSRVEYIEQDQILSIDPVVSNEAVQSPAPWGLDRIDQRNLPLDRNYNANFDGFGVTAYVIDTGVNNNHEEFGGRSVSGYDFVDNDADSSDCNGHGTHVAGTIGGSQYGVAKNVNIVGVRVLSCSGSGTTSGVISGVDWVAQNASGPSVANMSLGGGQSTALDSAVQGAIQSGVSFMLAAGNSNADACNTSPARVPSGVTVGSTTSSDSRSSFSNWGSCVDLFAPGSQIKSAWYDGGYKTISGTSMATPHVAGVAALYLQENNGLTPLQLTGLLNSRASENKVSDTRGTTNKLLYSLADSGCEPDCGGPTPGPDPDGKLVSGVPVNGLSGSRGQKDYFYMDLQQGQQLTVVTIGGTGDADLYLRFGDKPTLNTWDCRPYRSGNSETCTVNVTQSGRYHVMLNAYSAYSGLTLQANF [N142P I144P]
- Tm [1]: 67.8 °C
- change of melting temperature, mutant - wild type (higher = more stable) [1]: 5.9 °C
- Tm [2]: 67.8 °C
- change of melting temperature, mutant - wild type (higher = more stable) [2]: 5.9 °C
- Tm [3]: 72 °C
- change of melting temperature, mutant - wild type (higher = more stable) [3]: 8.1 °C
- unfolding enthalpy (calorimetric) [3]: 155 kcal/mol
- Tm [4]: 72 °C
- change of melting temperature, mutant - wild type (higher = more stable) [4]: 8.1 °C
- unfolding enthalpy (calorimetric) [4]: 154 kcal/mol

— FireProtDB (doi:10.1038/s41598-020-57873-3)
